B1: S55N, O00095 (parent)
chain: MKFLQVLPALIPAALAQTSCDQWATFTGNGYTVSNNLWGASAGSGFGCVTAVSLSGGASWHADWQWSGGQNNVKSYQNSQIAIPQKRTVNSISSMPTTASWSYSGSNIRANVAYDLFTAANPNHVTYSGDYELMIWLGKYGDIGPIGSSQGTVNVGGQSWTLYYGYNGAMQVYSFVAQTNTTNYSGDVKNFFNYLRDNKGYNAAGQYVLSYQFGTEPFTGSGTLNVASWTASIN

Variants of: B1
Conditions: Hypocrea jecorina; pH 8; Thermal; CD; Bis-Tris propane ammonium acetate 0.05 M 0.05 M; reversible: No; structure 1H8V; whole UniProt chain shown

Row | Variant | Tm [°C] | change of melting temperature, mutant - wild type (higher = more stable) [°C]
1 | S55N | 54.9 | 0.5
2 | T27S T32I | 55.5 | 1.1
3 | S93G | 54.5 | 0.1
4 | N107D | 54.9 | 0.5
5 | S79V | 53.6 | -0.8
6 | S159T | 54.9 | 0.5
7 | N183S | 54.6 | 0.2
8 | A82N | 54.5 | 0.1
9 | G57A | 56.9 | 2.5
10 | A204G | 54.9 | 0.5
11 | A51V | 62.1 | 7.7
12 | A51S | 50.4 | -4
13 | T179S | 54.7 | 0.3
14 | W23Y | 53.4 | -1

Source: FireProtDB (doi:10.1110/ps.0237703)
